Results published in the supplement of paper PMC7877785.
± gives the uncertainty stated by the source.

Experiment: self-splicing fitness, log relative to wild type (ln ratio); higher = more splicing; Tetrahymena group I intron in knt gene, E. coli kanamycin selection, DiMSum; sequences stand for … in CUCUCU…GGAGGGAAAAGUUAUCAGGCAUGCACCUGGUAGCUAGUCUUUAAACCAAUAGAUUGCAUCGGUUUAAAAGGCAAGACCGUCAAAUUGCGGGAAAGGGGUCAACAGCCGUUCAGUACCAAGUCUCAGGGGAAACUUUGAGAUGGCCUUGCAAAGGGUAUGGUAAUAAGCUGACGGACAUGGUCCUAACCACGCAGCCAAGUCCUAAGUCAACAGAUCUUCUGUUGAUAUGGAUGCAGUUCACAGACUAAAUGUCGGUCGGGGAAGAUGUAUUCUUCUCAUAAGAUAUAGUCGGACCUCUCCUUAAUGGGAGCUAGCGGAUGAAGUGAUGCAACACUGGAGCCGCUGGGAACUAAUUUGUAUGCGAAAGUAUAUUGAUUAGUUUUGGAGUACUCGUGGUCG
How it was run: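 A randomised library covering all eight P1ex-region intron nucleotides was built with the intron in the knt kanamycin-resistance gene on pET-22b(+) and held in E. coli BL21(DE3). Cells were grown overnight at 37°C or 30°C on LB agar, with or without 25 μg/mL kanamycin, plus 100 μg/mL carbenicillin, 50 μM IPTG and 0.2% rhamnose, and pooled colonies were amplicon-sequenced on an Illumina HiSeq 2500. DiMSum fitness is the error-weighted combination of wild-type-normalised replicate fold changes, kanamycin versus none.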

Sequence	self-splicing fitness (ln) (30 °C)	self-splicing fitness (ln) (37 °C)
ACGCAGCAAUAUUACGAAUU	-4.01 ± 0.23	-1.48 ± 0.1
UGGAAGCAAUAUUACGACUC	-0.463 ± 0.11	-0.577 ± 0.16
GAACAGCAAUAUUACGUGAA	-0.968 ± 0.061	-0.396 ± 0.069
CCCAAGCAAUAUUACGCAGG	-2.94 ± 0.2	-2.7 ± 0.48
CCUGAGCAAUAUUACGAUUG	-2.48 ± 0.17	-2.83 ± 0.27
GGGUAGCAAUAUUACGGCUA	-0.886 ± 0.24	-1.24 ± 0.22
CAGAAGCAAUAUUACGUGGA	-2.71 ± 0.18	-3.1 ± 0.2
GUCCAGCAAUAUUACGCGAC	-3.04 ± 0.19	-2.86 ± 0.21
CUACAGCAAUAUUACGAGGC		-1.35 ± 0.3
UCUAAGCAAUAUUACGGUGC	-2.58 ± 0.12	-2.85 ± 0.2
UAGAAGCAAUAUUACGGUUC	-3.98 ± 0.25	-2.31 ± 0.19
CGAGAGCAAUAUUACGCUUU		-2.33 ± 0.39
GCAUAGCAAUAUUACGUAUG	-2.85 ± 0.17	-2.44 ± 0.26
UACAAGCAAUAUUACGCCAA	-1.74 ± 0.18	-1.07 ± 0.15
CAGAAGCAAUAUUACGUUAG	-0.919 ± 0.077	-0.262 ± 0.097
UGAUAGCAAUAUUACGUCAA	-2.44 ± 0.18	-0.767 ± 0.16
CGAUAGCAAUAUUACGCAGU	-2.96 ± 0.19	-2.48 ± 0.19
CUGGAGCAAUAUUACGAGGA	-3.18 ± 0.33	
GAGUAGCAAUAUUACGUUAC	-4.57 ± 0.33	-1.57 ± 0.17
GACCAGCAAUAUUACGGGUU	-4.24 ± 0.21	-2.53 ± 0.18
GUCUAGCAAUAUUACGCAGA		-2.48 ± 0.31
CAAGAGCAAUAUUACGACUA	-3.01 ± 0.23	-2.47 ± 0.21
AGAAAGCAAUAUUACGCCUU	-1.29 ± 0.12	-1.69 ± 0.14
CGUCAGCAAUAUUACGUCGG	-0.413 ± 0.042	0.115 ± 0.06
ACGGAGCAAUAUUACGGGUG	-3.61 ± 0.18	-3.18 ± 0.22

Sequence	self-splicing fitness (ln) (30 °C)	self-splicing fitness (ln) (37 °C)
GUGUAGCAAUAUUACGGUUC	-1.04 ± 0.13	-0.373 ± 0.16
UGGUAGCAAUAUUACGCACU	-2.2 ± 0.19	-0.474 ± 0.22
UUAUAGCAAUAUUACGGGAA	-1.59 ± 0.29	-1.26 ± 0.28
UACUAGCAAUAUUACGUUCC	-2.22 ± 0.32	-2.33 ± 0.35
AUACAGCAAUAUUACGUCGU	-1.3 ± 0.07	-0.0346 ± 0.077
AUGGAGCAAUAUUACGUCCC	0.0307 ± 0.46	-0.013 ± 0.42
CUUCAGCAAUAUUACGACGU	-3.67 ± 0.21	-2.12 ± 0.21
UGUGAGCAAUAUUACGCCUG	-1.48 ± 0.16	-1.05 ± 0.16
UCGUAGCAAUAUUACGAAAC		-2.91 ± 0.38
GUGAAGCAAUAUUACGUGUA	-1.11 ± 0.069	-0.878 ± 0.087
UCGUAGCAAUAUUACGAUCC	-2.46 ± 0.35	
AAAUAGCAAUAUUACGUCUU	0.225 ± 0.074	0.263 ± 0.092
UAGUAGCAAUAUUACGUCGG	-2.04 ± 0.08	-1.53 ± 0.12
GCGGAGCAAUAUUACGGGUU	-4.22 ± 0.29	-1.49 ± 0.14
CACCAGCAAUAUUACGCCUU	-3.62 ± 0.14	-1.72 ± 0.12
AUUUAGCAAUAUUACGUGAG	-1.6 ± 0.083	-0.846 ± 0.13
UGUGAGCAAUAUUACGGGAA		-2.51 ± 0.33
GUACAGCAAUAUUACGAACG	-1.92 ± 0.17	-1.22 ± 0.19
UGGAAGCAAUAUUACGGUCC	-2.67 ± 0.15	-1.51 ± 0.14
UGCCAGCAAUAUUACGGGUC	-3.53 ± 0.23	-2.34 ± 0.18
AUCUAGCAAUAUUACGACAA	-1.76 ± 0.23	0.296 ± 0.19
AAGUAGCAAUAUUACGGUGG	-3.62 ± 0.22	-2.85 ± 0.26
GGGUAGCAAUAUUACGCCAG		-2.81 ± 0.47
CCUCAGCAAUAUUACGGGGC	-3.68 ± 0.14	-2.98 ± 0.19
AAUGAGCAAUAUUACGUCUA	-2.27 ± 0.24	-1.59 ± 0.18

Sequence	self-splicing fitness (ln) (30 °C)	self-splicing fitness (ln) (37 °C)
GAAUAGCAAUAUUACGCGAU	-3.41 ± 0.2	-2.5 ± 0.19
GUGCAGCAAUAUUACGUAGC	-1.44 ± 0.17	-0.976 ± 0.16
UCGUAGCAAUAUUACGCGGA	-2.54 ± 0.17	-1.4 ± 0.12
CUCUAGCAAUAUUACGAACA		-2.98 ± 0.34
AACGAGCAAUAUUACGUACU	-1.04 ± 0.067	-1.04 ± 0.079
CCGUAGCAAUAUUACGCUUA	-3.52 ± 0.45	-1.7 ± 0.35
CUAUAGCAAUAUUACGGCAC	-2.18 ± 0.24	-1.09 ± 0.42
CCAAAGCAAUAUUACGGAGC	-3.3 ± 0.15	-2.69 ± 0.19
CAGAAGCAAUAUUACGGGGU	-2.98 ± 0.19	-2.34 ± 0.21
UAUCAGCAAUAUUACGAGUA	-0.337 ± 0.079	-0.301 ± 0.088
AUCCAGCAAUAUUACGCUAA	-0.717 ± 0.093	-1.13 ± 0.077
ACAUAGCAAUAUUACGUAGA	-3.71 ± 0.15	-1.62 ± 0.12
GUGUAGCAAUAUUACGAUCG	-1.94 ± 0.22	0.634 ± 0.17
AUAGAGCAAUAUUACGUCCC	-2.36 ± 0.48	
AUUAAGCAAUAUUACGCCCC	-1.21 ± 0.31	0.0189 ± 0.48
CCCGAGCAAUAUUACGAGUG	-3.04 ± 0.17	-1.99 ± 0.13
CGGAAGCAAUAUUACGAUAC	-2.26 ± 0.18	-2.22 ± 0.21
GCAUAGCAAUAUUACGACAG	-3.41 ± 0.26	-2.71 ± 0.33
GUCGAGCAAUAUUACGACUG	-3.17 ± 0.45	-0.232 ± 0.18
GCGUAGCAAUAUUACGGAGG	-3.61 ± 0.23	-1.98 ± 0.18
CCGUAGCAAUAUUACGCUGA	-2.87 ± 0.31	-2.06 ± 0.28
GCAAAGCAAUAUUACGCCGG	-2.44 ± 0.17	-1.71 ± 0.2
UUGUAGCAAUAUUACGACGA	-1.08 ± 0.26	-0.0034 ± 0.36
GUUGAGCAAUAUUACGAUUC	-0.993 ± 0.12	0.00124 ± 0.2
CCUUAGCAAUAUUACGUUCA	-3.3 ± 0.47	-2.9 ± 0.47

Sequence	self-splicing fitness (ln) (30 °C)	self-splicing fitness (ln) (37 °C)
GGUGAGCAAUAUUACGUUGG	-3.52 ± 0.32	-0.982 ± 0.36
CAUAAGCAAUAUUACGCUCC	-2.87 ± 0.23	-0.216 ± 0.49
UAUGAGCAAUAUUACGCAAA	-2.74 ± 0.45	
CUACAGCAAUAUUACGGGAA	-2.88 ± 0.24	-2.28 ± 0.23
CUGUAGCAAUAUUACGAUUU		-2.62 ± 0.36
GAAGAGCAAUAUUACGGGUU	-3.11 ± 0.2	-2.22 ± 0.2
GUUAAGCAAUAUUACGCGGU	-3.3 ± 0.22	-2.65 ± 0.2
UCUUAGCAAUAUUACGGUGC	-3.26 ± 0.33	-1.9 ± 0.33
CAACAGCAAUAUUACGAGCA	-2.97 ± 0.15	-1.01 ± 0.11
AGGUAGCAAUAUUACGCACG	-0.782 ± 0.016	-0.31 ± 0.035
AAUUAGCAAUAUUACGCUUU	-3.27 ± 0.23	-1.01 ± 0.14
UUGCAGCAAUAUUACGGGUU	-3.77 ± 0.25	-2.15 ± 0.21
AAAGAGCAAUAUUACGGAGC	-2.8 ± 0.39	
UAAAAGCAAUAUUACGACGG	0.0981 ± 0.087	-0.342 ± 0.13
AAUAAGCAAUAUUACGUCGU	-0.729 ± 0.079	-0.613 ± 0.093
CCCUAGCAAUAUUACGCCCU	-3.61 ± 0.35	-1.54 ± 0.23
UGUUAGCAAUAUUACGGCCA	0.385 ± 0.17	0.166 ± 0.14
GCAAAGCAAUAUUACGCUCC	-3.61 ± 0.34	-3.03 ± 0.43
CCAUAGCAAUAUUACGGACA	-3.36 ± 0.23	-1.14 ± 0.16
UCGAAGCAAUAUUACGCCCC	-1.87 ± 0.44	
ACAAAGCAAUAUUACGACAC	-1.54 ± 0.084	-0.962 ± 0.1
CAUUAGCAAUAUUACGAAGA	-3.8 ± 0.43	-0.417 ± 0.23
AUGAAGCAAUAUUACGCAUC	-4.84 ± 0.29	-2.45 ± 0.17
UCGCAGCAAUAUUACGGCGA	-3.35 ± 0.13	-3 ± 0.17
